Reference: patent US9115383B2, “Fluorescence assay for ghrelin O-acyltransferase activity” (Syracuse University, priority 2012, dated 2015)
No end group written: not given here. *: point of attachment. acrylodan = acrylodan label (AcDan) on Cys, CN(C)c1ccc2cc(C(=O)CC*)ccc2c1; Dansyl = CN(C)c1cccc2c(S(=O)(=O)*)cccc12

Target: T1, hGOAT (Homo sapiens, UniProt Q96T53)
T1 construct: the gene for hGOAT was cloned with a C-terminal His10 tag into the pFastBacDual vector; His10 (C); made in house; host or cells: Sf9 insect cells, baculovirus (pFastBacDual); used as membrane fraction
T1 sequence (Q96T53 1-435): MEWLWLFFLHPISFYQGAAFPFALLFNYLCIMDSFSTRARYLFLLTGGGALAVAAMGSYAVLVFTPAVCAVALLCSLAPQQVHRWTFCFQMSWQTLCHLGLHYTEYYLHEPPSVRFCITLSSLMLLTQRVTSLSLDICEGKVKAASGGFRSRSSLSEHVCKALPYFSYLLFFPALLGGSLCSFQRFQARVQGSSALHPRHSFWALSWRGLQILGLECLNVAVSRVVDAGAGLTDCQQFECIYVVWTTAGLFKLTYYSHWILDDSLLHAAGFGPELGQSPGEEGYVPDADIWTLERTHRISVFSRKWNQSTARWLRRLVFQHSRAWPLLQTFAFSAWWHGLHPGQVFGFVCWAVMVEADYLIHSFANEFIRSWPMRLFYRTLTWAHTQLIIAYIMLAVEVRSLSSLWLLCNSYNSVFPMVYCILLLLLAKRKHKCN
Test: hGOAT-catalysed octanoylation of fluorescent ghrelin peptide substrates, RP-HPLC with fluorescence detection
Assay type: biochemical
Conditions: for modification (octanoylation) by hGOAT: RP-HPLC with fluorescence detection, hGOAT-His10 membranes vs mock membranes; for Active with hGOAT?: peptide tested as substrate, hGOAT-His10 membranes in parallel with mock membranes; for activity with hGOAT (substrate selectivity at N-terminus, G1 and S2): ghrelin mimic peptide mutants, FIG. 5
Description: FIG. 3 is a schematic of ghrelin peptide acylation reactions with the fluorescent GSSFLCAcDan substrate, where (A) is a reaction with control/mock membrane fraction; (B) is a time course for GSSFLCAcDan acylation using GOAT membrane fraction, and where the assays were incubated for 1-10 minutes at 37° C. and all reactions were analyzed using reverse-phase HPLC under the following assay conditions: 10 μM peptide, 50 μg membrane protein, 500 μM octanoyl coenzyme A, 100 μM palmitoyl coenzyme A, 50 mM HEPES buffer pH 7.0.
In order to test the activity of peptide substrates, the gene for hGOAT was cloned with a C-terminal His10 tag into the pFastBacDual vector and expressed using standard baculoviral procedures.
With the peptide substrates, the addition of the hydrophobic octanoyl group upon serine acylation at position 3 leads to an increase in retention time in reverse-phase (RP) HPLC. The panel of fluorescent ghrelin peptide substrates was assayed for activity with hGOAT using HPLC coupled with fluorescence detection of the fluorescently labeled peptides. All reactions with hGOAT-His 10 membranes were performed in parallel with mock membranes to account for nonspecific peptide modifications.
An assay for human ghrelin O-acyltransferase activity was performed using hGOAT expressed from insect (Sf9) cells using standard baculoviral methods and a fluorescent 6-mer peptide synthesized by a single step reaction followed by high performance liquid chromatography (HPLC) purification. The assay was performed at room temperature using hGOAT membrane protein, octanoyl-CoA, a fluorescent ghrelin peptide, a buffer, and a detergent. Activity may be measure by detecting the presence of any octanoylation of the ghrelin peptide. For example, the presence of octanoylated ghrelin peptide may be confirmed by HPLC or by using a fluorescent system whose fluorescence will increase as a result of octanoylation of the ghrelin peptide.

Substance	modification (octanoylation) by hGOAT	Active with hGOAT?	activity with hGOAT (substrate selectivity at N-terminus, G1 and S2)
GSSFCAcDanS (SEQ. ID No. 4) (GSSFC(acrylodan)S; ends and bridges not checked) [AcDan-5, ghrelin mimic peptide with acrylodan on cysteine at position 5]	yielded the octanoylated peptide with increased retention time	Yes	
GSSFLCAcDan (SEQ. ID No. 5) [AcDan-6]	yielded the octanoylated peptide with increased retention time	Yes	
GCAcDanSFLS (SEQ. ID No. 3) (GC(acrylodan)SFLS; ends and bridges not checked) [AcDan-2, ghrelin mimic peptide with acrylodan on cysteine at position 2]	not modified by hGOAT	No	
[Ac]GSSFLC (SEQ. ID No. 1)			low activity
Dansyl-GSSFLS (SEQ. ID No. 2) (ends and bridges not checked) [Substrate 1-Dansyl, ghrelin mimic peptide with N-terminal dansyl fluorophore]	not modified by hGOAT	No	
[Ac]SSFLC (SEQ. ID No. 6) (Ac-SSFLC; not fully specified; ends and bridges not checked) [N-terminally acetylated ghrelin mimic peptide lacking G1]			no activity
